The target in the experiment is recombinant human Pol δ core+p68 trimer (p125/p50/p68) (human) (UniProt P28340).
Sequence of recombinant human Pol δ core+p68 trimer (p125/p50/p68) (human) (P28340 whole entry, stated change not applied, chain 1 of 3): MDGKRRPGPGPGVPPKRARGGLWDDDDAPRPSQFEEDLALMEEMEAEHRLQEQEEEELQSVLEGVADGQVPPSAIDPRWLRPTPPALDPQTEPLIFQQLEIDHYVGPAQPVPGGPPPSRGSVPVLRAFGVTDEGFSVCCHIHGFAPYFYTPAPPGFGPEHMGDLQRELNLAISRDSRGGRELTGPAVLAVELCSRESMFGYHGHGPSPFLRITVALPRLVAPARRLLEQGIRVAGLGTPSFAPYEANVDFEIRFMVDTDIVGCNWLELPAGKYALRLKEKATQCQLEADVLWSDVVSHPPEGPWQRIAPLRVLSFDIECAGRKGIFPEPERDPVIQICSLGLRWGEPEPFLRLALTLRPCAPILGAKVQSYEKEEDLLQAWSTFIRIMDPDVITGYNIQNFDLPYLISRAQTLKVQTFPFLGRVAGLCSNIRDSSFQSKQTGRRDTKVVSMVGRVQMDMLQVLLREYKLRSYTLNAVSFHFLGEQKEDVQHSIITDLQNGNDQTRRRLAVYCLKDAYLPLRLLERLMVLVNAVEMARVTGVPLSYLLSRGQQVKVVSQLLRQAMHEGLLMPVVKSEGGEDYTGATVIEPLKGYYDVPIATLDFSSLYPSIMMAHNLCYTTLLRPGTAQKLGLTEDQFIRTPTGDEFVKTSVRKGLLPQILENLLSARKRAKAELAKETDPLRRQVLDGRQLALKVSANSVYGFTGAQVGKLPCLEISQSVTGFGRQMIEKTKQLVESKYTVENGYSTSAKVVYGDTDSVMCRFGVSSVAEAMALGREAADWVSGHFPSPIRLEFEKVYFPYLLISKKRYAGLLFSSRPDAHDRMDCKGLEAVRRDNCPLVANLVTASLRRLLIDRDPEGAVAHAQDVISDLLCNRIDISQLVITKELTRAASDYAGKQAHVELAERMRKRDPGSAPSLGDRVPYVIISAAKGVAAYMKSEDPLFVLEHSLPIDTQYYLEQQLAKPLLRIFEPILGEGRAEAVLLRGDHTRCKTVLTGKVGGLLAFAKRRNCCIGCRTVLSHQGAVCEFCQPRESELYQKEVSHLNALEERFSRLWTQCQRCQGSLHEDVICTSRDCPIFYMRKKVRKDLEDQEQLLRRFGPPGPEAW
Sequence of recombinant human Pol δ core+p68 trimer (p125/p50/p68) (human) (P49005 whole entry, stated change not applied, chain 2 of 3, further chain): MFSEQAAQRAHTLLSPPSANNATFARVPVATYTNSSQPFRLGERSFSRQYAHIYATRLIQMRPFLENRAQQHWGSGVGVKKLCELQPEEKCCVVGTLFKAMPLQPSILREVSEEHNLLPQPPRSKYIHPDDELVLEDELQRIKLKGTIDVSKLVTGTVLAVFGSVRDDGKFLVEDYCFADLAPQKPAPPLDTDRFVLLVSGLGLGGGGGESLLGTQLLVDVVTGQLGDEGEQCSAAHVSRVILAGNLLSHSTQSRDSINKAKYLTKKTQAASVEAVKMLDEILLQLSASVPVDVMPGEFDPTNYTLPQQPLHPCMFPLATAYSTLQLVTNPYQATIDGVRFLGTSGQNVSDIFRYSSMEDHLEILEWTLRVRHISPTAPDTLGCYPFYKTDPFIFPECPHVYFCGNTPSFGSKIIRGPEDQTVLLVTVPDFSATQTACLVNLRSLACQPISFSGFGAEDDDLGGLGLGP
Sequence of recombinant human Pol δ core+p68 trimer (p125/p50/p68) (human) (Q15054 whole entry, stated change not applied, chain 3 of 3, further chain): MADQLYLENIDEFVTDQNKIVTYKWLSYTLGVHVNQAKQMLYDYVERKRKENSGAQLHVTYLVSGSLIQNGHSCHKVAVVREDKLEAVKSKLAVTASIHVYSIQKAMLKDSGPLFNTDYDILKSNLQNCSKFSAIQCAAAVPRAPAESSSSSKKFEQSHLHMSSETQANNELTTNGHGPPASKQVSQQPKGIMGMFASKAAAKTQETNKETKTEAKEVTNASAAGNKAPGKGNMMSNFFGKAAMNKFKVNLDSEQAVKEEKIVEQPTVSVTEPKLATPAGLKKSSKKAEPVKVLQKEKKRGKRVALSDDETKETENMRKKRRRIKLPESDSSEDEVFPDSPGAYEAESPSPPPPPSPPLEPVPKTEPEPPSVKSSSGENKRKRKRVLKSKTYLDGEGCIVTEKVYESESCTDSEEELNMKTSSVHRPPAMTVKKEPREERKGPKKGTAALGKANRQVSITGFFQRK

B1: non-tagged recombinant p12 (natural protein)
chain: MGRKRLITDSYPVVKRREGPAGHSKGELAPELGEEPQPRDEEEAELELLRQFDLAWQYGPCTGITRLQRWCRAKQMGLEPPPEVWQVLKTHPGDPRFQCSLWHLYPL
Turning to B1, the restoration of Pol δ activity on poly(dA)/oligo(dT) with PCNA, core+p68 (200 fmoles) pre-incubated with 0-400 ng p12 at 4°C for 30 min, against Pol δ4 stood at 80% and the restoration of Pol δ activity on singly primed M13 DNA, core+p68 (50 fmoles) pre-incubated with 0-400 ng p12, against Pol δ4 stood at 96%.
